According to US20130101549A1 (Biogen, published 2013):
Where “and” joins values, the source holds several entries; their conditions need not be identical. Equal entries are not always repeated.

What was measured:
[1] = biological target: Soluble human LTBR (shuLTBR) (human, UniProt P36941 31-227, limits assumed); test: SEC / light scattering
Method: Soluble human LTBR (shuLTBR) was prepared by limited proteolytic digestion of human LTBR-Ig and purified by chromatography on protein A Sepharose and Fractogel TMAE. […] Controls with each protein were also included. The samples were analyzed by SEC using a […] column (Phenomenex) in PBS with a Waters Alliance HPLC instrument.

[2] = biological target: T1, human HER2-Fc (human, UniProt P04626 23-652); test: ELISA on coated huHER2-Fc, HRP anti-human kappa; the number is C of the printed 4-P fit (A -0.074, B 0.86, D 1.013, R^2 0.999); x axis: Fab equivalent concentration
T1 construct: Bought from R&D Systems: homodimeric fusion of the HER2 extracellular domain and human IgG1 Fc; also called human ErbB2-Fc; rhErbB2-Fc; not shown: Fc fragment of human IgG1
Method: (§1) Wells of 96-well plates were coated by incubation overnight at 4-8° C. with goat antibodies against human kappa chain (80 ul/well of a 5 ug/ml solution in PBS). Wells were emptied, filled completely with a solution of PBS with 1% BSA (blocking buffer) and incubated at room temperature for 1 hour. Wells were emptied, washed twice PBS containing 0.05% Tween 20 (PBST) and filled with the samples (80 ul/well of 3× dilution series of the standard and supernatants in blocking buffer) prepared in another 96-well plate. After a 2-hour incubation at room temperature, the wells were emptied, washed three times with PBST and filled with a solution of HRP-conjugated goat pAbs anti-human kappa chain (80 ul/well of a 2000-fold dilution in blocking buffer). After 1-hour incubation, the wells were emptied and filled with a solution of HRP substrate prepared freshly. The color was left to develop for 3 minutes and was stopped by addition of an equal volume of 1N H₂SO₄. Absorbance was measured at 450 nm using a Plate Reader (SpectraMax, Molecular Devices). The data was processed and graphs were created using SoftMax Pro software.
Human and murine HER2-Fc (homodimeric fusion proteins consisting of the extracellular domain of HER2 and the Fc fragment of human IgG1) were obtained from R&D Systems. […]

[3] = biological target: T2, human LTβR-Ig (human, UniProt P36941 31-227); test: ELISA, huLTBR-Ig coated at 0.2 ug/ml, HRP goat anti-human kappa; the number is C of the printed 4-P fit (A 0.057, B 0.9, D 1.548, R^2 0.998); Fab-Light is BIIB71F10-132 by paragraph 502
T2 construct: Expressed and purified in house; also called hLTbR-Ig; human LTBR-Ig
Method: as §1, with “Human and murine ErbB2-Fc were obtained from R&D Systems. Wells of” for “Wells of”, “were coated with 2 ug/ml or 0.2 ug/ml of human or murine HER2-Fc by incubation” for “were coated by incubation”, “C. with either of these six proteins (80 ul/well” for “C. with goat antibodies against human kappa chain (80 ul/well”, “of a 0.2 or 2 ug/ml solution” for “of a 5 ug/ml solution”
Human and murine LTBR-Ig were expressed and purified in house.

[4] = biological target: T3, human HER2/ErbB2 on cells (human, UniProt P04626 23-1255); test: FACS on HER2-expressing cells
T3 construct: whole, on cells; also called hHER2/ErbB2; wild type HER2/ErbB

[5] = biological target: T4, human LTBR-mIgG fusion; test: sandwich ELISA after incubation at 200 ng/ml in human serum (cold or 37°C overnight): HER2-Fc on the plate, human LTBR-mIgG, HRP anti-mouse IgG; the signal needs both bindings at once
T4 construct: kept apart from m25 (human Fc); not shown: exact end of the LTBR part
Method: An ELISA assay was developed to detect LIGHT-Ab fusions after incubation with human sera. Briefly, 200 ng/mL of LIGHT-Ab fusions were incubated overnight in human serum at 37° C. The serum was assayed in sandwich ELISA as follows. HER2-Fc was immobilized to a solid surface, and was used to capture the LIGHT-Ab fusions. The serum incubated fusion proteins were added to the solid surface. Detection was effected using a human LTBR-mIgG fusion to bind to the LIGHT moiety of the fusion. Horseradish peroxidase (HRP) labeled anti-mouse IgG was used to detect bound LIGHT-Ab fusions.

[6] = biological target: T2, human LTβR-Ig; test: FACS (LTbR column of Table 2; format not told there)
[7] = biological target: T5, human HVEM-Ig (human, UniProt Q92956 39-202); test: ELISA, huHVEM-Ig coated at 2 ug/ml, HRP goat anti-human kappa; the number is C of the printed 4-P fit (A 0.064, B 0.959, D 1.517, R^2 0.999); Fab-Light is BIIB71F10-132 by paragraph 503
T5 construct: Expressed and purified in house; also called HVEM-Fc; Herpes virus entry mediator-Ig
T5 sequence (looked up): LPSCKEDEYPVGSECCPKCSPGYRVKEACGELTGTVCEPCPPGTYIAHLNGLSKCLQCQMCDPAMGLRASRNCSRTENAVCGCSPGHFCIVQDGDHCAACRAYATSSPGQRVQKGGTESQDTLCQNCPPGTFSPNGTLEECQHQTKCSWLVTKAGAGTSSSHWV
Method: as §1, with “Human and murine ErbB2-Fc were obtained from R&D Systems. Wells of” for “Wells of”, “were coated with 2 ug/ml or 0.2 ug/ml of human or murine HER2-Fc by incubation” for “were coated by incubation”, “C. with either of these six proteins (80 ul/well” for “C. with goat antibodies against human kappa chain (80 ul/well”, “of a 0.2 or 2 ug/ml solution” for “of a 5 ug/ml solution”
Human and murine HVEM-Ig were expressed and purified in house.

B1: 71F10 Fab-hLIGHT fusion with the (G4S)4 linker (BIIB71F10-132) (other)
heavy: EVQLLESGGGLVQPGGSLRLSCAASGFTFSSYGMVWVRQAPGKGLEWVSSISSSGGLTWYADSVKGRFTISRDNSKNTLYLQMNSLRAEDTAVYYCASPPGIAVARDYWGQGTLVTVSSASTKGPSVFPLAPSSKSTSGGTAALGCLVKDYFPEPVTVSWNSGALTSGVHTFPAVLQSSGLYSLSSVVTVPSSSLGTQTYICNVNHKPSNTKVDKKVEPKSCDKGGGGSGGGGSGGGGSGGGGSNPAAHLTGANSSLTGSGGPLLWETQLGLAFLRGLSYHDGALVVTKAGYYYIYSKVQLGGVGCPLGLASTITHGLYKRTPRYPEELELLVSQQSPCGRATSSSRVWWDSSFLGGVVHLEAGEEVVVRVLDERLVRLRDGTRSYFGAFMV
light: DIQMTQSPSSLSASVGDRVTITCRASQGISNYLAWYQQKPGKVPKLLIYAASTLQSGVPSRFSGSGSGTDFTLTISSLQPEDVATYYCQKYNSALLTFGGGTKVEIKRTVAAPSVFIFPPSDEQLKSGTASVVCLLNNFYPREAKVQWKVDNALQSGNSQESVTEQDSKDSTYSLSSTLTLSKADYEKHKVYACEVTHQGLSSPVTKSFNRGEC
notes: Trimer of Fab-LIGHT units; also called 71F10 Fab-(G4S)4-LIGHT
For B1, the “stoichiometry (shuLTBR for 1 Fab-Light trimer)” value [1] was 2 shuLTBR per trimer and 3 shuLTBR per trimer, the EC50 [2] was 7 ng/mL and the EC50 [3] was 1.91 ng/mL. For the same binder, the EC50 [4] was 0.5 nM, the binding result [5] was “binds” and the EC50 [6] was 0.2 nM. The EC50 [7] was 2.45 ng/mL.
